The values below come from paper PMC3240630.

The target in assay [1] is monoubiquitin (UniProt P0CG48). The conditions noted are these: cited from earlier work.
The target of assay [2] is monoubiquitin (UniProt P0CG48). The conditions noted are these: cited from earlier work. The source holds these as a separate data set.
In assay [3] the target is monoubiquitin (UniProt P0CG48). Particulars: cited from earlier work. The source holds these as a separate data set.
Assay [4] concerns the target monoubiquitin (UniProt P0CG48). The conditions noted are these: cited from earlier work. The source holds these as a separate data set.
Assay [5] concerns the target monoubiquitin (UniProt P0CG48). Particulars: cited from earlier work. The source holds these as a separate data set.
In assay [6] the target is XIAP-UBA-RING double-domain construct (human). Put plainly: SEC; analytical size-exclusion chromatography of 15N-XIAP-UBA-RING at 0.18 mM (methods in Methods S1). (In general: In gel filtration, larger molecules generally elute earlier.)
Assay [7] has as its target monoubiquitin (UniProt P0CG48). The conditions noted are these: cited from earlier work. This is another data set of the same source.
Assay [8] addresses monoubiquitin (UniProt P0CG48). Particulars: cited from earlier work. This is another data set of the same source.

Like-named read-outs stand apart in the source and are kept apart here.

Swa2 UBA, sequence (Q06677 137-183): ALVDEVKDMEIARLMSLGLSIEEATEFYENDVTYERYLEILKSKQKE
cIAP-1, sequence (Q13490 whole entry): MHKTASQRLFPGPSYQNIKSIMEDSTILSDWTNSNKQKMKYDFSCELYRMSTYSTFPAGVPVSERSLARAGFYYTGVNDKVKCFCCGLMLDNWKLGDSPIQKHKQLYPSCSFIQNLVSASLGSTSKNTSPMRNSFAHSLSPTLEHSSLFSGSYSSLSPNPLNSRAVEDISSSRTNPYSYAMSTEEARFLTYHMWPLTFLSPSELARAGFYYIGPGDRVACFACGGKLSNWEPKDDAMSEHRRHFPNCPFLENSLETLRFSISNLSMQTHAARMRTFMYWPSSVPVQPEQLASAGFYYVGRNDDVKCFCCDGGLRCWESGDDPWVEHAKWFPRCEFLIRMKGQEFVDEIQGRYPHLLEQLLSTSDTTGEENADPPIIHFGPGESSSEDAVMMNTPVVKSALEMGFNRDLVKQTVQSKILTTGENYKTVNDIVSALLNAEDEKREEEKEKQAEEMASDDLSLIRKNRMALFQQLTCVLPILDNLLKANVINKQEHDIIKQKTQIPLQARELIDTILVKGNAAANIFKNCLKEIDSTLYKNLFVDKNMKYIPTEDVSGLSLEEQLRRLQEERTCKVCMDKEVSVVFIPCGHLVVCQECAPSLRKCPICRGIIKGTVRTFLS
Dsk2 UBA, sequence (P48510 324-373): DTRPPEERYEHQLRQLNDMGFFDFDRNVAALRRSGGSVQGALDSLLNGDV
Cbl-b UBA, sequence (Q13191 928-973): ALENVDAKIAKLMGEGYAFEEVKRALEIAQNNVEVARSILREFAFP
Ede1 UBA, sequence (P34216 1335-1381): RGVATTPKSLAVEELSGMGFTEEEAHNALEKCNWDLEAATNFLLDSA
hHR23A UBA2, sequence (P54725 315-361): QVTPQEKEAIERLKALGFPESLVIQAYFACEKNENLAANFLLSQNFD
Mud1 UBA, sequence (Q10256 291-332): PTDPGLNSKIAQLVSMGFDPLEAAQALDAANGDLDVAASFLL

Broadly, the Kd is the equilibrium constant for the complex coming apart. Regarding Cbl-b UBA (from UniProt Q13191), the Kd with monoubiquitin [1] is 53.1 µM. In the case of Dsk2 UBA (from UniProt P48510), the Kd in the assay with monoubiquitin [2] is 14.8 µM. Turning to Ede1 UBA (from UniProt P34216), the Kd with monoubiquitin [3] was 83 µM. Take Mud1 UBA (from UniProt Q10256): the Kd with monoubiquitin [4] is 350 µM. Take Swa2 UBA (from UniProt Q06677): the Kd with monoubiquitin [5] is 535 µM. What is called stoichiometry N is a count of units in the complex or per binding partner. Consider “XIAP-UBA-RING double-domain construct (domain or fragment)”, for which the stoichiometry N in assay [6] was 2. With cIAP-1 (from UniProt Q13490), the Kd in the assay with monoubiquitin [7] is 56 µM. With hHR23A UBA2 (from UniProt P54725), the Kd with monoubiquitin [8] was 400 µM.
